Assay results reported in US11932673B2, “Sodium channel inhibitors” (priority 2017, dated 2024).

Assays:
trypsin [1] = test: TRF binding assay of purified KnotBody Fabs on biotinylated trypsin
trypsin [2] = test: Phage TRF binding assay of KnotBody phage on immobilised biotinylated trypsin
Experimental: Phage display technology facilitates isolation of binders to any given target from large combinatorial repertoires based on proteins and peptides that can be presented on the surface of filamentous phage^105. In order to isolate functional knottin-antibody fusions from the KnotBody libraries multiple rounds of phage display selections on trypsin (cognate antigen for the EETI-II donor) were carried out. Phage particles were prepared by rescuing KnotBody libraries using trypsin cleavable helper phage^102,106 Two rounds of phage display selections were performed on 10 μg/ml biotinylated trypsin immobilised on Streptavidin (for Round-1) or Neutravidin (for round-2) coated Maxisorp™ immunotubes (Thermo Scientific, Cat No. 444202). In both rounds of selection, phage libraries were pre-incubated with streptavidin coated paramagnetic beads (Thermo Fisher Scientific, Cat. No. 11205D). These beads were removed prior to the addition the phage to the antigen tubes to limit the streptavidin binders entering the selection. Polyclonal phage preparations from round-2 selection outputs were analysed for trypsin binding using a time resolved fluorescence (TRF) binding assay. In this assay, polyclonal phage binding to biotinylated trypsin immobilised on neutravidin (Thermo Fisher Scientific, Cat. No 31000) coated Maxisorp™ plates (Thermo Scientific, Cat. No. 437111) was detected using a mouse anti-M13 antibody (GE Healthcare, Cat. No. 27-9420-01) followed by europium conjugated anti-mouse antibody (Perkin Elmer, Cat. No. AD0124).
In order to identify monoclonal KnotBodies with desired binding characteristics, 94 individual clones derived from 2 rounds of selection using EETI-II CDR1 or CDR2 libraries were picked into 96 well culture plates and phage were prepared from each clone. Methods for screening by monoclonal phage ELISA are known in the art^107. […] Clones with >3× binding signal above background were picked as positive clones and sequenced to identify unique clones. 14 and 42 unique binders were identified from EETI-II CDR1 and EETI-II CDR2 libraries respectively (Table 1). 18 binders from the EETI-II CDR2 library and 3 binders from the EETI-II-CDR1 library were chosen for further characterisation based on their VL and linker sequence diversity. These binders were assigned new clone identification numbers (Table 2). […] In order to confirm that the loss of trypsin binding was not due to reduced expression or display of pIII fusion phage was prepared from 11 (randomly chosen) KnotBodies and their GlyAla variants were analysed on a western blot using an antibody which recognises the product of gene 3 (pIII) using an anti-pIII antibody (MoBiTec GmbH) (FIG. 6).

trypsin [3] = test: Phage trypsin binding assay, KB_A12 versus EETI-II cow ULVC-Ab; details: PEG precipitated phage, 12.5x and 0.5x
From the text: Bovine antibodies have been described with natural ultra-long VH CDR3s containing a solvent exposed double stranded antiparallel sheet approximately 20 A° in length (referred to as the stalk) presenting a folded domain stabilised by 3 disulfide bonds (referred to as the Knob)^10. Zhang and colleagues have shown that the Knob domains of these cow ultra-long VH CDR3 antibodies (ULVC-Ab) can be replaced with other folded proteins such as erythropoietin^13. In this example, we assess the ability of a cow ULVC-Ab to present functional knottin fusions on phage in comparison with a KnotBody. In order to create a Knottin-cow UCLA fusion, the sequence between the first and the last cysteines of the knob region of the Cow ULVC-Ab BLV1H12 was replaced with the sequence of the trypsin binding knottin; EETI-II (EETI-II cow ULVC-Ab). A gene fragment encoding this construct was synthesised (Integrated DNA technologies, Table 21). This synthetic gene was cloned into the phage display vector pSANG4 using restriction sites NcoI and NotI and transformed into E. coli TG1 cells. […] In this assay, the binding of phage rescued from EETI-II cow ULVC-Ab and KB_A12 to trypsin was detected using an anti-M13 antibody followed by europium conjugated anti-mouse antibody (as described in example 3).

B1: KB_A12: EETI-II VL CDR2 KnotBody, D1A12 VH, VL SEQ ID NO: 105/373; parental/isotype control (antibody, V domains shown)
VH: EVQLVESGGGLVRPGGSLRLSCAASGFTFSSYAMSWVRQAPGKGLEWVSAISGSGGSTYYADSVKGRFTISRDNTKNSLYLQMTSLRADDTAFYYCVKDFGPGYGTGWFDYWGPGTLVTVSS
VL: QSVLTQPPSVSEAPRQRVTITCSGSSSNIGNNAVNWYQQLPGKAPKLLIYAAGRCPRILMRCKQDSDCLAGCVCGPNGFCGANSGVSDRFSAAKSGTSASLAINGLRSEDEADYYCAAWDDSLNGYVFGTGTKLTVLG
With B1 the “TRF signal for 0.6 ug/mL Fab” value (trypsin [1]; KnotBody Fab 0.6 ug/mL, background (no Fab) 431) was 102132, the “TRF signal for 2.4 ug/mL Fab” value (trypsin [1]; KnotBody Fab 2.4 ug/mL, background (no Fab) 406) was 221989 and the “TRF signal for 10 ug/mL Fab” value (trypsin [1]; KnotBody Fab 10 ug/mL, background (no Fab) 420) was 252832. The “% reduction in binding signal” value (trypsin [2]; […], monoclonal phage, streptavidin coated plates) was 99%, the “Tryspin binding signal (FU)” value (trypsin [2]; monoclonal phage supernatant, biotinylated trypsin on neutravidin coated plates, TRF) was 69349 FU and the “phage binding to trypsin” value (trypsin [3]) was “superior binding to trypsin compared to the EET-II-Cow ULVC-Ab fusion”.
